Target: L-ferritin-M6A (mouse L-ferritin with the Mms6 iron-binding segment M6A at its C-terminus behind a glycine spacer), with the N-terminal 6-His tag (mouse | Magnetospirillum magneticum AMB-1) (UniProt Q2W8R5)
Assay: SEC; HiLoad 26/60 Superdex 200; 20 mM Bis-Tris pH 5.8, 500 mM KCl, 10% glycerol; oligomer judged by elution volume

Q: With “L-ferritin-M6A (mouse L-ferritin with the Mms6 iron-binding segment M6A at its C-terminus behind a glycine spacer), with the N-terminal 6-His tag (from UniProt Q2W8R5 116-127)” as the substance, how does the stoichiometry N read?
A: The stoichiometry N was 24.

— PMC7677926
